B1: Mouse Mosavirus (nucleic acid, listed as Mosavirus sp.)
DNA: GAAGTTGATCATGAACTTGGTTATTGGTGGAACGCACATGAACTCCCAACAATGATCTTGAAGACACAGCGTGGTAACAATTACCATGCCCTTGTGGCTGCCCAAGACATTGATGGCTATTGGGTGATTTATGATGAC
B2: Mumps virus (nucleic acid, listed as Mumps orthorubulavirus)
DNA: ACCAAGGGGAAAATGAAGATGGGATGTTGGTAGAACAAATAGTGTAAGAAACAGTAAGCCCGGAAGTGGTGTTTTGCGATTTCGAGGCCGGGCTCGATCCTCACCTTTCATTGTCGATAGGGGACATTTTGACACTACCTGGAAA
B3: Lesavirus 2 (nucleic acid)
DNA: TCTTTCTTTATTTTCTTATGTAACTCTTCTTTTTAAGTTTTATTTTGCCTACTTGTGAGCTTATGCGGGACCACTGTCTTAGACAACCCCACATTTGTCATGAGTAAGTACACGCAACCATTACGATTACTTTTTAACCGTCTGACCTTTTGATAACAACTGAAGTTAGGCGTGAAACATGCATTTATACCAAAGTAGCCCCGCATTTCCCCACTACGGTGGGGGGGCTACCCTACTGGCTTTGGAACTGTAGCCATTATGTGTTGCCTGGCTTTCAGGATCTCACAACACAACAGTTCTCTCACAATGGAATATGGGTGAGATTGCAGTGACATGAACAAGTATCTAGTAGTACATAGACTCAAGCCTAGTTGCCTGCGGAACAACATGTGGTAACACATGCCCCAGGGTCCAAAAGACAAGGGTTAACAGCCCCTTCTAGGTGTCTGTGTGTGAAGAATACTTTAGTAGTGTTGTTATGATCTCACCTGTTAGTACAGAATGAGTATGGCTTGGTGAAGGATGTCCTACAGGTACCCATTATATGGATCTGAGTAGGAGACCACTAGTGGTGGCTTTACCGCCAGGTGAGTGGTTTAAAAAGCGTCTAGCCAAGCCAACAGCACTAGGGATAGTGCTTTCTATATTTTATATTTTCAGTGTATATGGTGACAA
B4: Lesavirus 1 (nucleic acid)
DNA: GTAACTAATAAGCAAGTTTTACTGCCTGCAAACTGCTTCAATGGGACCACCGCTTCGGCGACCCCTTTGTTGAGTTTGTATGTTTTTAAGTAATCTTTGCAACCATACGATTATTTTAGCCGCCTCTCTATAATGATCTTGTTATAGTGGGACGTGAAACATTGGTTTTTCTCACACACGTCCGGTCACCCGGGCGTGTGTTCTTCCGTAAGTCCTATCCACATACCATCGTGGGTAGGCCAGCATGTTTGCACAGGCTGTGACAGTGTGGGTGGGCTTTCCACCTCTCAACAACACACTGAATTGCAATGCACTCACGGAGGAAATGACAATTTGGTTATAGTTTTGAACTGTGCTAGTAATTTCTTTCACATTAAGCCATGTTGCCTGCGGAATCACATGTGGTAACACATGCCTCAGGGCCCAAAAGGCACGGGTTAGCAGCCCCTTCATGGTGTGTTAGAAGTGAAAACACATAGTATGAGCTATAATATCTTTGTTGTCTTCTCTGTAGTGTACCCCGCCAAATGTAAGGATGCCCAGCAGGTACCCATTTTATGGATCTGAGCTGGGGATTGATAGTGTATCTATAAATGCACTGATCAATTTAAAAAGCGTCTAAGTTTGGCACAAACACTGGGGACAGTGTTTTTCCTTTATTCTTTTATTTGATTA
B5: Linda virus (nucleic acid)
DNA: GTATAGCAGCAGTAGCTCAAGGCTGCTATACGATTGGACATACCAAATTCCAATTGGTGTTAGGGACCACCTAGGTGAAGGCCGACGACAGGTAGCCATTCCTGTTAGTAGGACGAACCGTTATGGTGGACTGGTTGCTCAGGTGAGCAGGCTGCAATGCGTAAGTGGTGAGTACACCACAGCCGTCAAAGGTGCCACTGGTAAGGATCACCCACTGGCGATGCCTTGTGGACGGGGGCGTGCCCAACGCAATGTTAGCGGTGGCGGGGGCTGCCATCGTGAAAGCTAGGTCTTGATGGACCTTGTTGCCTGTACAGTCTGATAGGATGCCGGCGGATGCCCTGTGACAGCCAGTATAAAGAATATCCGTTGTGATTGCAC
B6: Megirivirus C (nucleic acid)
DNA: TTCCCGACCGGTCTGGCAAACCGGACGGTTATCCTGGTTAGATGTCTGATGGTTGCTGGAACGTGGTGGCTACTGCTGCCACCTTCTGGCTTCCTTTAATGGGCATCTAGCTGGGTTCTTTGCCACAATCCATCTTACTCTCTTACCCATTTTCTATTACCCAGACTTGTTGTTAACTGGTAAAGTTGACCTACTGGCTTCGTTTTGAGACTATTCTGGTGTTGGTGGACACTCTTTCCACAAGTAGATTGTATGGAGTTCATGCTCGTTTTGAACCGGGAATGGCACAACCCGTAGTAGGATCTTGCCTCTGCCATACTAATCTGCGCCTGTTGCTTTTAGACTATGGGCTGCTAAGGATGACATTGGAACCCCTTTTTGGATATTCCATGTCAAGTCAACTGTTTCATCTGGTGTACGCTGGAAATCCTTGTTCCGAGGTCTTGTCTGGAGGTGGTGCTGAAATATTGCAAGCCACAGGCAGTTCCTTGGACTTGGTGCCGCTATCAGATGCTACACCCTCTATGGGCAAATGTTGAACCTTAGTGGACGCGTGAGATGGGAATCCACGCCGGCCATAGACTGGCTGATAAGCTCGCGGCTGATCGAGTTGCAACAGTAATCAGTTGATTTGCCACT
B7: Pestivirus strain Aydin (nucleic acid, listed as Pestivirus sp.)
DNA: GTATACGAGATTAGCTCATACTCGTGTACAAATTGGACGTAGCAAATTTAAAAATTCGGATAGGGTCCCCATCCAGCGACGGCCGAACGGGGTTAACCATACCTCTAGTAGGACTAGCAGACGGATGGACTAGCCACAGTGGTGAGCTCCCTGGGAGGTCTAAGTTCTGAGTACAGAACAGTCGTCAGTAGTTCAACGCTGGTAAACCCCAGCCTTGAGATGCTACGTGGACGAGGGCATGCCCAAGACACACCTTAACCTGGACGGGGGTCGTCCAGGTGAAAGTACCCATCTTTGGGTGCTGGGAGTACAGCCTGATAGGGCGCTGCAGAGGCCCACTGACAGGCTAGTATAAAAATCTCTGCTGTACATGGAAC
B8: Miniopterus schreibersii picornavirus 1 (nucleic acid)
DNA: GTTGTCGACCCGTTGCTTGGTTTAAGCATGAGGTGGATTCCCCCGATTATGTCTACCCGTTACTATGGCGGGCGGTCGTTTCAGGGTGTTTCTACTGAGGACTGCACCAAGTCTTTATCTTTTATTCTCAGATCTCCGGCTGTTTGACGCTTGTAGGACAGCAGGACTATTTTCTCTTAATCTTTTTCTACCCACTAGGGTCCTATCCTAGTGGAGGGAGGGTGCCACCCCTTCTCTCTTTAGAGAGTGCGCCTGGCGGTCTTTCCGTCTCTGGAAAAAGGAGCACATGGCATGCTACAATTGGCACAAGAAAACAAGCTTTGCGGATTCTTTCTTTGTACTAGAGGAAGCTGTAGCGACCCTGTATGGCGAGCGGACTCCCCTCTCGGCGACGAGAGCCTCTCGGGCCAAAAGCCAAGTGTTAATAGCACCCATACAGGCGGCAGTACCCCACTGCCCTTTCTCAACATACAATGACTGATGAACCACTGTTGGTTTTTCTGACACCTTTGTAGTAGGATTCCAAGGAATGTCCTGAAGGTACCCTGTTAGCTTACGCGCAGGATCTGATCAGGAGTCTCTTTACAGTGCTGTACACTGTGCAAGGGATTAAAAATTGTTTGAGGAATCCCCGAGATAGTGGTCTATCTCTTCCTATTTTGTTTTACAGACACG
B9: Kagoshima-2-24-KoV (nucleic acid, listed as Kobuvirus sp.)
DNA: TATAGTTTGCCTGTTTCTCGCACCGTTACCGCTCGTTCGGGAATGTGAAACTGGCACCCCTCCTCTCCCCTACCACCCTTTCTCCTTCGCCCCCATTCATAATTTACAACGCCGCACACAGCGGCGGCCGCCAAGGGCTAGCCTGGCGGTTATAAAAGGAACCTGGGTCTTTCCCTCTTCAAGCCAAAAGGTAGGTTCCCTGTGTCCCTGAATGCTCGGTGAGGAATGCTGCACCGTAACGCTTTGTGAAGTGTTTGCAAGTTCTGGCCCGGCAAGCCTACAGAGTGCTGTGATCCGCTGCGGACGCCATCCTGGTAACAGGACCCCCAGTGTGCGCAACAGTATGTTCAGACTTCGGTTTGTTCACTTGCTTTCATGGACCATTGCGCGAAAGTGCGTGCGCCATATCCCTGTACTTCAGGTGTGCTTCTCTGGACCCTAGGAATGCTGCGAAGGTACCCCGTTTCGGCGGGATCTGATCGCAGGCTAATTGTCTATGGGTTCAGTTTCCTTTTTCTTTACTCCACAATTGACTGCTTAACTGACTCTGGATCTTGTGCTTCCACTGCTCTTTCTGCTCTCAAAACGGCTTCACTTACCAACTCTCACCTTTCGACCAACACCATTTACACACTAACTTTTTTCGACTCTTCTGACTCCTGGCTTGGTGAAGAC
B10: Phopivirus strain NewEngland (nucleic acid)
DNA: GGGAGTAAACCTCACCACCGTTTGCCGTGGTTTACGGCTACCTATTTTTGGATGTAAATATTAATTCCTGCAGGTTCAGGTCTCTTGAATTATGTCCACGCTAGTGGCACTCTCTTACCCATAAGTGACGCCTTAGCGGAACCTTTCTACACTTGATGTGGTTAGGGGTTACATTATTTCCCTGGGCCTTCTTTGGCCCTTTTTCCCCTGCACTATCATTCTTTCTTCCGGGCTCTCAGCATGCCAATGTTCCGACCGGTGCGCCCGCCGGGGTTAACTCCATGGTTAGCATGGAGCTGTAGGCCCTAAAAGTGCTGACACTGGAACTGGACTATTGAAGCATACACTGTTAACTGAAACATGTAACTCCAATCGATCTTCTACAAGGGGTAGGCTACGGGTGAAACCCCTTAGGTTAATACTCATATTGAGAGATACTTCTGATAGGTTAAGGTTGCTGGATAATGGTGAGTTTAACGACAAAAACCATTCAACAGCTGTGGGCCAACCTCATCAGGTAGATGCTTTTGGAGCCAAGTGCGTAGGGGTGTGTGTGGAAATGCTTCAGTGGAAGGTGCCCTCCCGAAAGGTCGTAGGGGTAATCAGGGGCAGTTAGGTTTCCACAATTACAATTTGAA
B11: Jingmen picorna-like virus (nucleic acid)
DNA: TGTGTTTTTGTCAAGATAATTGTTCTGTGATTAACAGTGATTGTGGTTCGTGTAATGCGACGCAGTCAAATGCTAGTTTTGATGAAGTGTATGAGAGAGTGGAAAACTTATCTCATAAGAAGATTGAAGAGTGTGTAGATCAGGCTATTGATCGAGCTTCTAAGCTTCGTGATTACAAGCTTAATGTTCACAATGGCTCCCGACGGGAATCATCTGATCCTCTCTTTATTTCGCCCCATTCGTTGTTATCGCTTGGGGTATCTAAGTTTGTTGCGTTTGAGCAGCATCACAGTTTCGCTTCAGTTGAGTCTCTGAAGTTGCTTGCTCTGTCT

These molecules were tested on HEK293 cells. Conditions: luminescence from secreted Gluc in supernatant 24 hours after transfection of HEK293 cells; circular RNA encoding Gluc with the named IRES (UTR truncated to 675 nt).
Type: cell-based, human

Row | Molecule | Expression
1 | B1 | 9.00E+04
2 | B2 | 1.47E+05
3 | B3 | 3.67E+07
4 | B4 | 6.37E+06
5 | B5 | 7.37E+05
6 | B6 | 1.24E+05
7 | B7 | 3.11E+06
8 | B8 | 6.05E+06
9 | B9 | 9.30E+07
10 | B10 | 1.06E+05
11 | B11 | 9.32E+04

From patent US20230226096A1 (Orna Therapeutics, Inc., priority 2020, published 2023)
